Measured values taken from paper PMC13397619.

B1: NLV3 TCR beta chain (CDR3β only) (parent)
chain: ASSPTGGSPSPLH

Variants of: B1
Assay: T-Switch: Jurkat TCRβ−/− cells expressing a CDR3 saturation-mutagenesis library, stained with two peptide-HLA-A*02:01 tetramers (original and novel peptide) plus anti-CD3, FACS-sorted into four gates, gDNA sequenced
Conditions: tetramers 1 µg/mL, 30 min on ice, SP, DP and SW gates expanded about 10 days between rounds ('two to three rounds of selection' in the Methods), unresolved parent, parent is a CDR3 fragment, scale: fold enrichment, numbering: sequential-on-construct, sequence starts at 1
[1] = with both tetramers (double-negative gate, binds neither): HLA-A*02:01 with … and with …, gate DN: OPPOSITE: higher = more of the variant in the gate that binds neither peptide = LESS binding (or no expression; inferred). Fold enrichment of the CDR3 variant in one FACS gate of a two-tetram
[2] = with both tetramers (double-positive gate): HLA-A*02:01 with … and with …, gate DP: higher = more of the variant in the gate that binds both peptides. Fold enrichment of the CDR3 variant in one FACS gate of a two-tetramer stain. SP/DP/SW gates were expanded and re-sorted bef

Variant | enrichment [1] | enrichment [2]
[…] (CDR3 as printed); S10T derived by comparing it with the table's wild-type CDR3 ASSPTGGSPSPLH | 1.08 | 0
[…] (CDR3 as printed); H13F derived by comparing it with the table's wild-type CDR3 ASSPTGGSPSPLH | 0.541 | 0
[…] (CDR3 as printed); G6M derived by comparing it with the table's wild-type CDR3 ASSPTGGSPSPLH | 0.906 | 0
[…] (CDR3 as printed); G6H derived by comparing it with the table's wild-type CDR3 ASSPTGGSPSPLH | 1.05 | 0
[…] (CDR3 as printed); H13Q derived by comparing it with the table's wild-type CDR3 ASSPTGGSPSPLH | 0.592 | 0
[…] (CDR3 as printed); A1S derived by comparing it with the table's wild-type CDR3 ASSPTGGSPSPLH | 1.25 | 0
[…] (CDR3 as printed); S2N derived by comparing it with the table's wild-type CDR3 ASSPTGGSPSPLH | 0.879 | 0
[…] (CDR3 as printed); S8G derived by comparing it with the table's wild-type CDR3 ASSPTGGSPSPLH | 0.725 | 0
[…] (CDR3 as printed); P4K derived by comparing it with the table's wild-type CDR3 ASSPTGGSPSPLH | 0.891 | 0
[…] (CDR3 as printed); S8I derived by comparing it with the table's wild-type CDR3 ASSPTGGSPSPLH | 1.23 | 0
[…] (CDR3 as printed); P4M derived by comparing it with the table's wild-type CDR3 ASSPTGGSPSPLH | 0.718 | 0
[…] (CDR3 as printed); G6A derived by comparing it with the table's wild-type CDR3 ASSPTGGSPSPLH | 0.582 | 0
[…] (CDR3 as printed); P9N derived by comparing it with the table's wild-type CDR3 ASSPTGGSPSPLH | 1.65 | 0
[…] (CDR3 as printed); P9Y derived by comparing it with the table's wild-type CDR3 ASSPTGGSPSPLH | 0.562 | 0
[…] (CDR3 as printed); S8L derived by comparing it with the table's wild-type CDR3 ASSPTGGSPSPLH | 1.58 | 0
[…] (CDR3 as printed); P11D derived by comparing it with the table's wild-type CDR3 ASSPTGGSPSPLH | 0.46 | 0
[…] (CDR3 as printed); S3E derived by comparing it with the table's wild-type CDR3 ASSPTGGSPSPLH | 0.814 | 0
[…] (CDR3 as printed); P4L derived by comparing it with the table's wild-type CDR3 ASSPTGGSPSPLH | 0.459 | 0
[…] (CDR3 as printed); L12R derived by comparing it with the table's wild-type CDR3 ASSPTGGSPSPLH | 0.619 | 0

Variant | enrichment [1] | enrichment [2]
[…] (CDR3 as printed); P11V derived by comparing it with the table's wild-type CDR3 ASSPTGGSPSPLH | 1.05 | 0
[…] (CDR3 as printed); L12H derived by comparing it with the table's wild-type CDR3 ASSPTGGSPSPLH | 0.844 | 0
[…] (CDR3 as printed); G6C derived by comparing it with the table's wild-type CDR3 ASSPTGGSPSPLH | 0.841 | 0
[…] (CDR3 as printed); A1Q derived by comparing it with the table's wild-type CDR3 ASSPTGGSPSPLH | 0.998 | 0
[…] (CDR3 as printed); S2M derived by comparing it with the table's wild-type CDR3 ASSPTGGSPSPLH | 0.757 | 0
[…] (CDR3 as printed); S8A derived by comparing it with the table's wild-type CDR3 ASSPTGGSPSPLH | 0.6 | 0
[…] (CDR3 as printed); H13K derived by comparing it with the table's wild-type CDR3 ASSPTGGSPSPLH | 0.708 | 0
[…] (CDR3 as printed); T5L derived by comparing it with the table's wild-type CDR3 ASSPTGGSPSPLH | 0.514 | 0
[…] (CDR3 as printed); G6N derived by comparing it with the table's wild-type CDR3 ASSPTGGSPSPLH | 1.47 | 0
[…] (CDR3 as printed); S10A derived by comparing it with the table's wild-type CDR3 ASSPTGGSPSPLH | 0.624 | 0
[…] (CDR3 as printed); P11K derived by comparing it with the table's wild-type CDR3 ASSPTGGSPSPLH | 0.634 | 0
[…] (CDR3 as printed); S3Q derived by comparing it with the table's wild-type CDR3 ASSPTGGSPSPLH | 1.09 | 0
[…] (CDR3 as printed); S10E derived by comparing it with the table's wild-type CDR3 ASSPTGGSPSPLH | 1.41 | 0
[…] (CDR3 as printed); H13R derived by comparing it with the table's wild-type CDR3 ASSPTGGSPSPLH | 0.602 | 0
[…] (CDR3 as printed); P9T derived by comparing it with the table's wild-type CDR3 ASSPTGGSPSPLH | 1.11 | 0
[…] (CDR3 as printed); H13M derived by comparing it with the table's wild-type CDR3 ASSPTGGSPSPLH | 0.598 | 0
[…] (CDR3 as printed); P11S derived by comparing it with the table's wild-type CDR3 ASSPTGGSPSPLH | 1.52 | 0
[…] (CDR3 as printed); T5M derived by comparing it with the table's wild-type CDR3 ASSPTGGSPSPLH | 0.479 | 0
[…] (CDR3 as printed); A1R derived by comparing it with the table's wild-type CDR3 ASSPTGGSPSPLH | 0.65 | 0

Variant | enrichment [1] | enrichment [2]
[…] (CDR3 as printed); A1P derived by comparing it with the table's wild-type CDR3 ASSPTGGSPSPLH | 1.02 | 0
[…] (CDR3 as printed); S2R derived by comparing it with the table's wild-type CDR3 ASSPTGGSPSPLH | 0.703 | 0
[…] (CDR3 as printed); S10Q derived by comparing it with the table's wild-type CDR3 ASSPTGGSPSPLH | 0.571 | 0
[…] (CDR3 as printed); S2K derived by comparing it with the table's wild-type CDR3 ASSPTGGSPSPLH | 0.571 | 0
[…] (CDR3 as printed); A1N derived by comparing it with the table's wild-type CDR3 ASSPTGGSPSPLH | 1.07 | 0
[…] (CDR3 as printed); P9C derived by comparing it with the table's wild-type CDR3 ASSPTGGSPSPLH | 0.869 | 0
[…] (CDR3 as printed); P9M derived by comparing it with the table's wild-type CDR3 ASSPTGGSPSPLH | 1.18 | 0
[…] (CDR3 as printed); S2E derived by comparing it with the table's wild-type CDR3 ASSPTGGSPSPLH | 0.993 | 0
[…] (CDR3 as printed); P4W derived by comparing it with the table's wild-type CDR3 ASSPTGGSPSPLH | 1.23 | 0
[…] (CDR3 as printed); H13A derived by comparing it with the table's wild-type CDR3 ASSPTGGSPSPLH | 0.498 | 0
[…] (CDR3 as printed); S8M derived by comparing it with the table's wild-type CDR3 ASSPTGGSPSPLH | 1.29 | 0
[…] (CDR3 as printed); P9Q derived by comparing it with the table's wild-type CDR3 ASSPTGGSPSPLH | 0.777 | 0
[…] (CDR3 as printed); P9F derived by comparing it with the table's wild-type CDR3 ASSPTGGSPSPLH | 0.851 | 0
[…] (CDR3 as printed); S3A derived by comparing it with the table's wild-type CDR3 ASSPTGGSPSPLH | 0.616 | 0
[…] (CDR3 as printed); P11L derived by comparing it with the table's wild-type CDR3 ASSPTGGSPSPLH | 0.702 | 0
[…] (CDR3 as printed); S8E derived by comparing it with the table's wild-type CDR3 ASSPTGGSPSPLH | 1.16 | 0
[…] (CDR3 as printed); P11F derived by comparing it with the table's wild-type CDR3 ASSPTGGSPSPLH | 0.728 | 0
[…] (CDR3 as printed); A1Y derived by comparing it with the table's wild-type CDR3 ASSPTGGSPSPLH | 1.15 | 0
[…] (CDR3 as printed); S10K derived by comparing it with the table's wild-type CDR3 ASSPTGGSPSPLH | 1.05 | 0
